Data on 130 substances can be found in the supplement of paper PMC12042874.

This series is described as follows: amyloid nucleation score (Sup35N fusion, yeast selection) (log enrichment); library NNK3; higher = more nucleation; inactive = no reads after selection. The essentials:
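Sup35N fusions to peptides of 20 random codons were expressed in psi-negative yeast, induced 24 hours with 100 μM copper sulfate, and grown 7 days at 30°C on medium lacking adenine and uracil. Input and output plasmid inserts were sequenced by Illumina. The nucleation score is the DiMSum log enrichment of output over input reads, centred on the mode score of non-aggregating sequences. Sequences with under 100 input reads were excluded.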

± gives the uncertainty stated by the source.

Turning to GTASRG, the amyloid nucleation score entry was “inactive”.

For TNTNFSVRFRTTKWMAKRRA, the amyloid nucleation score turned out to be 1.4 ± 0.11.

CVSEKQWLSVVVELVFWGCG: the amyloid nucleation score is -0.821 ± 1.3.

As to PFLLSFKGNMQADSPGC, the amyloid nucleation score result is “inactive”.

With TNIHKTVSMKW, the amyloid nucleation score result is “inactive”.

RAWMCIQW came in with an amyloid nucleation score of 0.382 ± 0.25.

The substance RLQNPTCAAPWCCIGKGVIR had an amyloid nucleation score of 0.538 ± 0.39.

With GMDSIWHFDCNLS, the amyloid nucleation score stood at 0.094 ± 0.81.

Regarding SEDLRETWGSSA, the amyloid nucleation score is -0.377 ± 0.98.

Turning to NLHNVMRKFTQGFSGHKTKL, the amyloid nucleation score result was “inactive”.

Consider SDIHMMRCGVWLKNLMFMRK, for which the amyloid nucleation score result is “inactive”.

As to FVQRWCYGGKCNGCVGSSGG, the amyloid nucleation score result is “inactive”.

For SFYNCTEVETHGRRICIFLY, the amyloid nucleation score result was “inactive”.

As to NRGSGRSMYMRSSFYSESGS, the amyloid nucleation score stood at 0.522 ± 0.28.

As for FNMWIWS, the amyloid nucleation score entry is “inactive”.

Take RFIISCQRYVETTT: the amyloid nucleation score result is “inactive”.

As for SRNFTRHILHDLHYAGILKA, the amyloid nucleation score entry is “inactive”.

For GVWKLVSRARNDSINLR, the amyloid nucleation score entry is “inactive”.

As for AVPNIL, the amyloid nucleation score entry is “inactive”.

The substance CLFYLCRARMMFNWPSCTRG displayed an amyloid nucleation score of 0.933 ± 0.22.

Substance CCNMYVSFTCWHRRRSFS gave an amyloid nucleation score of 1.23 ± 0.13.

ISGKSHSFCCVTLFHLREGI: the amyloid nucleation score stood at 1.12 ± 0.17.

As to VLGNFSSFVAAKVARRS, the amyloid nucleation score entry is “inactive”.

Turning to CGMLTGVIKNLDLTRRYKC, the amyloid nucleation score entry is “inactive”.

With CLMPLSDN, the amyloid nucleation score result was “inactive”.

For the substance RSVGYRTAVMRHLYIMMN, the amyloid nucleation score entry is “inactive”.

Take QTISVYYFHVLWSEGCRMYA: the amyloid nucleation score result is “inactive”.

Turning to KLYELDAVMMAWVIMY, the amyloid nucleation score result was “inactive”.

For TCKWFFHHAIDCLRKRISME, the amyloid nucleation score entry was “inactive”.

With EFSKHFPCWHRNSVAYYEIR, the amyloid nucleation score entry is “inactive”.

PLMRTGEDISPERQRDGRGK: the amyloid nucleation score result is “inactive”.

Take SWFGYSVIDAKYGDIRTPVK: the amyloid nucleation score entry was “inactive”.

In the case of SSRRPWIIGSMST, the amyloid nucleation score entry was “inactive”.

As for EDMVARGSLSKGHWKDLAT, the amyloid nucleation score result is “inactive”.

Consider ALCANYCFAMFSDSGLRWTV, for which the amyloid nucleation score came to 1.01 ± 0.09.

With ENNVRTVHVISWAIFLSTYF, the amyloid nucleation score entry was “inactive”.

For the substance SRFLRMASGYWSN, the amyloid nucleation score entry is “inactive”.

Substance QVLTFVYFHDNVMVLGWEYS came in with an amyloid nucleation score of 0.206 ± 0.78.

As for NPCHCQRRINFVL, the amyloid nucleation score entry was “inactive”.

With QLSVYIYLLIQLVISRKRNT, the amyloid nucleation score result is “inactive”.

Consider CDEGSGWILFIRHLLLYWRG, for which the amyloid nucleation score entry was “inactive”.

As to IYEVVMVCISESLFLLMVKG, the amyloid nucleation score entry was “inactive”.

Turning to GKKNYLF, the amyloid nucleation score entry is “inactive”.

Consider EVLSNDGAGLFFHGKKCMYI, for which the amyloid nucleation score result was “inactive”.

Regarding DSCQKVVWIGSGEVRKAWRY, the amyloid nucleation score entry was “inactive”.

Turning to IWTDDWFFVAVSDGKVSRLV, the amyloid nucleation score result was “inactive”.

With PSHIGLL, the amyloid nucleation score entry is “inactive”.

VYRIARMAQHLIRWKNR displayed an amyloid nucleation score of 0.187 ± 0.7.

Regarding TPDQDMLVMPWISYGGGYWR, the amyloid nucleation score entry is “inactive”.

For KKRSMD, the amyloid nucleation score result was “inactive”.

EFCVYMSNGGKNLRTRTWAQ: the amyloid nucleation score stood at 0.54 ± 0.31.

For GASKHT, the amyloid nucleation score is 0.319 ± 0.33.

VHGKWIDRRYNVISRPLGGG: the amyloid nucleation score entry was “inactive”.

WAIGQLYFMRILV: the amyloid nucleation score entry is “inactive”.

For WPFMNYVNENCSWYSS, the amyloid nucleation score stood at 1.09 ± 0.14.

For the substance SRMLVSKLWKNMGLVSSAYL, the amyloid nucleation score entry was “inactive”.

For the substance LSCCSSGGGSTPVIAPTYYE, the amyloid nucleation score entry was “inactive”.

NILEYYLLTGLYVAFLYLNR: the amyloid nucleation score entry was “inactive”.

For FYTMELISVQRI, the amyloid nucleation score result is “inactive”.

In turn, YMFVLGYRMNCW gave an amyloid nucleation score of 1.01 ± 0.17.

As to KSSSFSFVASCGHAVILQKK, the amyloid nucleation score entry is “inactive”.

In the case of GIFLSEWWLGSVSCVRTNVP, the amyloid nucleation score entry is “inactive”.

As to VDNHPDFFLNLESVLINVDH, the amyloid nucleation score result was “inactive”.

For the substance TNVSKLLIMSFVCSIHRSHG, the amyloid nucleation score was found to be 0.816 ± 0.18.

With QYLWPAKFFQTLYIVGCTTP, the amyloid nucleation score result is “inactive”.

On to YLMNVLFAYVD, for which the amyloid nucleation score result was “inactive”.

Substance TYAIYVDSGIFLEVHGNLYM had an amyloid nucleation score of 2.64 ± 0.08.

On to VLMMPPAFRRQSFNFRCVSQ, for which the amyloid nucleation score entry is “inactive”.

As for CSHYFNVYTLRCISSIGDS, the amyloid nucleation score result is “inactive”.

Substance NGYFLSQGGLLSLIMHFKIV gave an amyloid nucleation score of -0.041 ± 0.77.

Turning to GLLAFKVLISKASVDFYNVS, the amyloid nucleation score was -0.134 ± 0.4.

As to SFFDYAHRASSVFLGIFPEP, the amyloid nucleation score entry was “inactive”.

With SYVPSTMIRMIWIMAFHRGN, the amyloid nucleation score is -0.024 ± 0.43.

As for RMTKTKI, the amyloid nucleation score result is “inactive”.

Turning to RLWLVYAKPGTRRCSRRMGC, the amyloid nucleation score result was “inactive”.

On to FFLTYTIECVGLNHMILSIM, for which the amyloid nucleation score entry was “inactive”.

Substance RIHSYAYPCQFFRLDYGGGQ had an amyloid nucleation score of 0.703 ± 0.13.

Regarding GLKCGFRPSSVINSYWSSQL, the amyloid nucleation score entry was “inactive”.

Turning to RPWPYSYTNWDLCWLMAMPN, the amyloid nucleation score result is “inactive”.

As for SWGPLINLRFQLLARCTPGL, the amyloid nucleation score result is “inactive”.

Consider YSLEGSRSTVWRGVCCKLAF, for which the amyloid nucleation score worked out at 0.092 ± 0.24.

SPPSQYSVDQIFHMSWLVYY: the amyloid nucleation score entry was “inactive”.

For the substance CTHEFTTRHLICFRFSKLVY, the amyloid nucleation score entry was “inactive”.

For the substance QQCVTLQIYTMFKLRDYPA, the amyloid nucleation score was determined as 0.503 ± 0.24.

Consider SDGSNKVLESRCDSLHNVIV, for which the amyloid nucleation score entry is “inactive”.

Regarding KGFDRMMGVH, the amyloid nucleation score entry is “inactive”.

Take TPMRHYKY: the amyloid nucleation score result was “inactive”.

With GENWDCTCVADQCRNWTCYL, the amyloid nucleation score was found to be 0.282 ± 0.81.

In the case of TDTIKSVVYVSVLDGDYNSG, the amyloid nucleation score result is “inactive”.

Regarding SEASYIIIFSGFSGFMPKLG, the amyloid nucleation score result is “inactive”.

MRMHALAVNIGCCYTCVVVT had an amyloid nucleation score of 0.866 ± 0.099.

Regarding IRVSVVRSICMQSGRCEYQA, the amyloid nucleation score came to 1.21 ± 0.15.

For ELMHFLAFVGDAMYVLSGII, the amyloid nucleation score result is “inactive”.

CCIMLTWKRCLNKRLVTTDP: the amyloid nucleation score entry was “inactive”.

With HDYYFDTRDTIRVIL, the amyloid nucleation score result was “inactive”.

As to FFPMLIARMDALPRPVNLGY, the amyloid nucleation score result is “inactive”.

As to ALWLPITVDWMLESGCGGCY, the amyloid nucleation score result was “inactive”.

For FMAQPSLIGLFRSQS, the amyloid nucleation score entry is “inactive”.

In turn, VAALFKGKAVSCGGFSFFN had an amyloid nucleation score of -0.076 ± 0.54.

With SRGLFTNGVASFRRVCGLPW, the amyloid nucleation score result is “inactive”.

Regarding GVRQVMVSSFRGNHNQKDTS, the amyloid nucleation score result was “inactive”.

As to MLLVHNRTDIFLWIDLYNSL, the amyloid nucleation score result is “inactive”.

With TTEMWKALACPSHRTTRPCS, the amyloid nucleation score result is “inactive”.

As for HWLFVVKMMKS, the amyloid nucleation score is -0.093 ± 0.41.

In the case of CFPCLWP, the amyloid nucleation score amounted to 1.26 ± 0.12.

With VTFAARLTYKSILDILCMME, the amyloid nucleation score result was “inactive”.

Take WGITA: the amyloid nucleation score entry is “inactive”.

Turning to HSLTATINTGKLYKSVSKHG, the amyloid nucleation score entry was “inactive”.

In the case of PINWECWDQELEGLHDMQAI, the amyloid nucleation score entry was “inactive”.

As to SYSADLKLMIWSCLNLVVFQ, the amyloid nucleation score result is “inactive”.

GWLRAMKSIVNLF: the amyloid nucleation score entry was “inactive”.

With GISFSFRFLNENFHCVFRRA, the amyloid nucleation score entry is “inactive”.

For YCRSSPTLTFCQYSL, the amyloid nucleation score result was “inactive”.

On to TDYPLLMLL, for which the amyloid nucleation score result is “inactive”.

For MGDSVFRCLCNTYALLFPPV, the amyloid nucleation score result is “inactive”.

Consider IENNSPLSSFLGYGKCIP, for which the amyloid nucleation score entry is “inactive”.

As to LLELRVVRLRTNVAVVHIYV, the amyloid nucleation score entry is “inactive”.

As to AQRVMD, the amyloid nucleation score entry is “inactive”.

Regarding ALSLYLISLWYGYSWYLRFD, the amyloid nucleation score entry was “inactive”.

For the substance MCSGAAFMRRVC, the amyloid nucleation score result is “inactive”.

In the case of NSLWSYMGTVLFNPFWLVWR, the amyloid nucleation score entry was “inactive”.

Regarding ESRFCTYVSSRDYISTIQFN, the amyloid nucleation score result was “inactive”.

VSITVFPFTLLITYLI gave an amyloid nucleation score of 0.165 ± 0.75.

The substance ASSLHDPMRYVQTFRISWCC returned an amyloid nucleation score of 1.34 ± 0.12.

As for QLRGGVHMMHVCACGVDWWM, the amyloid nucleation score result is “inactive”.

On to RIVMPLSVSFMPQVKHPMYR, for which the amyloid nucleation score result is “inactive”.

For the substance NSSLCYFENLTTAIFVMEWI, the amyloid nucleation score result is “inactive”.

As to LSTSL, the amyloid nucleation score entry was “inactive”.

SSAGYVVYIVMSRS registered an amyloid nucleation score of 2.65 ± 0.065.

Regarding DCYRGVSLCELFDECR, the amyloid nucleation score entry was “inactive”.
